The RNAGym collection of RNA variant scans (doi:10.7554/elife.80360)

B1: Hairpin Ribozyme (parent)
chain: GUCCUCUUUCACGUGCGCGUGAAAGAGAGAAGUGAACCAGAGAAACACACGUUGUGGUAUAUUACCUGGUA

Variants of: B1
Test: self-cleavage, relative activity (ratio to wild type); higher = more cleavage; co-transcriptional

Row | Variant | self-cleavage
1 | GUCGUCUUUCACGUGCGCGUGAAAGAGAGAAGUGAACCAGAGAAACACACGUUGUGGUAUACUACCUGGUA | 0.148
2 | GUCGUCUUUCACGUGCGCGUGAAAGAGAGAAGUGAACCAGAGAAACACACGUUGUGGUAUAGUACCUGGUA | 0.114
3 | GUCGUCUUUCACGUGCGCGUGAAAGAGAUAAGUGAACCAGAGAAACACACGUUGUGGUAUAUUACCUGGUA | 0.13
4 | GUCUUCUUUCACGUGCGCGUGAAAGAGAGAAGUGAACCAGCGAAACACACGUUGUGGUAUAUUACCUGGUA | 0.469
5 | GUCUUCUUUCACGUGCGCGUGAAAGAGAGAAGUGAACCAGUGAAACACACGUUGUGGUAUAUUACCUGGUA | 0.71
6 | GUCUUCUUUCACGUGCGCGUGAAAGAGAGAAGUGAACCAGAGAAACACACGUUGUGGUAUAUUACCUGGUU | 0.282
7 | GUCGUCUUUCACGUGCGCGUGAAAGAGAGAAGUGAACCAGAGAAACACACGUUGUGGUAUAUUACCUGUUA | 0.118
8 | GUCGUCUUUCACGUGCGCGUGAAAGAGAGAAGUGAACCAGAGAAACACACGUUGUGGUAUAUUACCUGAUA | 0.132
9 | GUCUUCUUUCACGUGCGCGUGAAAGAGAGAAGUGAACCAGAGAAUCACACGUUGUGGUAUAUUACCUGGUA | 0.0517
10 | GUCUUCUUUCACGUGCGCGUGCAAGAGAGAAGUGAACCAGAGAAACACACGUUGUGGUAUAUUACCUGGUA | 0.172
11 | GUCGUCUUUCACGUGCGCGUGAAAGAGAGAAGUGAACCAGAGAAACACACGUUGUGGUAUAUUACCGGGUA | 0.182
12 | GUCGUCUUUCACGUGCGUGUGAAAGAGAGAAGUGAACCAGAGAAACACACGUUGUGGUAUAUUACCUGGUA | 0.284
13 | GUCUUCUUUCACGUGAGCGUGAAAGAGAGAAGUGAACCAGAGAAACACACGUUGUGGUAUAUUACCUGGUA | 0.41
14 | GUCUUCUUUCACGUGCGCGUGAAAGAGAGAAGUGAACCAGAGAUACACACGUUGUGGUAUAUUACCUGGUA | 0.162
15 | GUCUUCUUUCACGUGCGCGUGAAAGAGAGAAGUGAACCAGAGAAACACGCGUUGUGGUAUAUUACCUGGUA | 0.0694
16 | GUCUUCUUUCACGUGCGCGUGAAAGAGAGAAGUGAACCAGAGAAACCCACGUUGUGGUAUAUUACCUGGUA | 0.0918
17 | GUCUUCUUUCACGUGCGCGUGAAAGAGAGAAGUGAACCAGAGAAACUCACGUUGUGGUAUAUUACCUGGUA | 0.115
18 | GUCGUCUUUCACGUGGGCGUGAAAGAGAGAAGUGAACCAGAGAAACACACGUUGUGGUAUAUUACCUGGUA | 0.201
19 | GUCUUCUUUCACGUGCGCGUGAAAGAGAGAAGUGAACCAGAGAAACAUACGUUGUGGUAUAUUACCUGGUA | 0.142
20 | GUCGUCUUUCACGUGCGCGUGAAAGAGAGAAGUGAACCAAAGAAACACACGUUGUGGUAUAUUACCUGGUA | 0.114
21 | GUCGUCUUUCACAUGCGCGUGAAAGAGAGAAGUGAACCAGAGAAACACACGUUGUGGUAUAUUACCUGGUA | 0.193
22 | GUCUUCUUUCACGUGCGCGUGACAGAGAGAAGUGAACCAGAGAAACACACGUUGUGGUAUAUUACCUGGUA | 0.3
23 | GUCGUCUUUCACGUGCGCGUGAAAGAGAGAAGUGAACCAGAGAAACACACGUUGUGGUACAUUACCUGGUA | 0.224
24 | GUCUUCUUUCACAUGCGCGUGAAAGAGAGAAGUGAACCAGAGAAACACACGUUGUGGUAUAUUACCUGGUA | 0.238
25 | GUCUUCUUUCACGUGCGCGUGAAAGAGAGAAGUGAACCAGAGUAACACACGUUGUGGUAUAUUACCUGGUA | 0.202
26 | GUCGUCUUUCACGUGCGCGUGAAAGAGAGAAGUGAACCAGAGAAACACACGUUGUGGUAUAUCACCUGGUA | 0.112

Row | Variant | self-cleavage
27 | GUCGUCUUUCACGUGCGCGUGAAAGAGAGAAGUGAACCAGAGAAACACACGUUGUGGUAUAUUACUUGGUA | 0.178
28 | GUCGUCUUUCACGUGCGCGUGAAAGAGAGAAGUGAACCAGAGAAACACACGUUGUGGUAUAUUACAUGGUA | 0.277
29 | GUCUUCUUUCACGUGCGCGUGAAAGAGAGACGUGAACCAGAGAAACACACGUUGUGGUAUAUUACCUGGUA | 0.193
30 | GUCUUCUUUCACGUGCGCGUGAAAGAGAGAUGUGAACCAGAGAAACACACGUUGUGGUAUAUUACCUGGUA | 0.104
31 | GUCGUCUUUCACGUGCGCGUGAAAGAGAGAACUGAACCAGAGAAACACACGUUGUGGUAUAUUACCUGGUA | 0.115
32 | GUCGUCUUUCACGUGCGCGUGAAAGAGAGAAUUGAACCAGAGAAACACACGUUGUGGUAUAUUACCUGGUA | 0.149
33 | GUCGUCUAUCACGUGCGCGUGAAAGAGAGAAGUGAACCAGAGAAACACACGUUGUGGUAUAUUACCUGGUA | 0.0905
34 | GUCUUCUUUGACGUGCGCGUGAAAGAGAGAAGUGAACCAGAGAAACACACGUUGUGGUAUAUUACCUGGUA | 0.264
35 | GUCGUCUUUUACGUGCGCGUGAAAGAGAGAAGUGAACCAGAGAAACACACGUUGUGGUAUAUUACCUGGUA | 0.198
36 | GUCUUCUUUCACGUGCGCGUGAAAGAGAGAAGUGAAUCAGAGAAACACACGUUGUGGUAUAUUACCUGGUA | 0.243
37 | GUCGUCUUUCACGUGCGCGUGAAAGAGAGAAGUGAACCAGAGAAACACACGUUCUGGUAUAUUACCUGGUA | 0.139
38 | GUCGUCUUUCACGUGCGCGUGAAAGAGAGAAGUGAACCAGAGAAACACACGUUAUGGUAUAUUACCUGGUA | 0.144
39 | GUCGUCUUUCACGUGCGCGUGAAAGAGAGAAGUGAACCAGAGAAACACACGGUGUGGUAUAUUACCUGGUA | 0.184
40 | GUCGUCUUUCACGUGCGCGUGAAAGAGAGAAGUGAACCAGAGAAACACACGAUGUGGUAUAUUACCUGGUA | 0.143
41 | GUCUUCUUUCACGUGCGCGUGAAAGAGAGAAGUGAACCAGAGAAACACACGUUGUGGUGUAUUACCUGGUA | 0.163
42 | GUCUUCUUUCACGUGCGCGUGAAAGAGAGAAGUGAACCAGAGAAACACACGUUGUGGUUUAUUACCUGGUA | 0.113
43 | GUCUUCUUUCAAGUGCGCGUGAAAGAGAGAAGUGAACCAGAGAAACACACGUUGUGGUAUAUUACCUGGUA | 0.333
44 | GUCGUUUUUCACGUGCGCGUGAAAGAGAGAAGUGAACCAGAGAAACACACGUUGUGGUAUAUUACCUGGUA | 0.0456
45 | GUCGUCUUUCACGUGCGCGUGAAAGAGAGAAGUGAAACAGAGAAACACACGUUGUGGUAUAUUACCUGGUA | 0.209
46 | GUCGUCUUUCACGUGCGCGUGAAAGAGAGAAGUGAAGCAGAGAAACACACGUUGUGGUAUAUUACCUGGUA | 0.168
47 | GUCGUCUUUCACGAGCGCGUGAAAGAGAGAAGUGAACCAGAGAAACACACGUUGUGGUAUAUUACCUGGUA | 0.231
48 | GUCGUCUUUCACGGGCGCGUGAAAGAGAGAAGUGAACCAGAGAAACACACGUUGUGGUAUAUUACCUGGUA | 0.265
49 | GUCUUCUUUCACGUGCGCGUGAAAGAGAGAAGUGAACCAGAGAAACACACGUUGUGGUAUGUUACCUGGUA | 0.169
50 | GUCUUCUUUCACGUGCGCGUGAAAGAGAGAAGUGAACCAGAGAAACACACGUUGUGGUAUUUUACCUGGUA | 0.0691
51 | GUCUUCUUUCACGUGCGCGUGAAAGAGAGAAGUGAACCAGAGAAACACACGUUGUGGUAUCUUACCUGGUA | 0.294
52 | GUCGUCUUUCACGUGCGCGUGAAAGAGAGAAGUGAACCAGAGAAACACACGUUGUGGUAUAUUACCUGGGA | 0.219

Row | Variant | self-cleavage
53 | GUCGUCUUUCACGUGCGCGUGAAAGAGAGAAGUGAACCAGAGAAACACACGUUGUGGUAUAUUACCUGGAA | 0.161
54 | GUCUUCUUUCACGUGCGCGUGAAAGAGAGAAGUGCACCAGAGAAACACACGUUGUGGUAUAUUACCUGGUA | 0.418
55 | GUCGUCUUUCACGUGCGCGUGAAAGAGAGAAGUGAACCAGAGAAACAUACGUUGUGGUAUAUUACCUGGUA | 0.146
56 | GUCGUCUUUCACGUGCGCGUGAAAGAGAGAAGUGAACCAGAGAAACACAAGUUGUGGUAUAUUACCUGGUA | 0.147
57 | GUCUUCUUUCACGUGCGCGUGAAAGCGAGAAGUGAACCAGAGAAACACACGUUGUGGUAUAUUACCUGGUA | 0.144
58 | GUCUUCUUUCACGUGCGGGUGAAAGAGAGAAGUGAACCAGAGAAACACACGUUGUGGUAUAUUACCUGGUA | 0.349
59 | GUCUUCUUUCACGUGCGUGUGAAAGAGAGAAGUGAACCAGAGAAACACACGUUGUGGUAUAUUACCUGGUA | 0.514
60 | GUCGUCUUUCACGUGCGCGUGAAAGAGAGAAGUGAACCAGAGAAACACACGUUGUGAUAUAUUACCUGGUA | 0.103
61 | GUCGUCUUUCACGUGCGCGUGAAAGAGAGAAGUGAACCAGAGAAAGACACGUUGUGGUAUAUUACCUGGUA | 0.122
62 | GUCGUCUUUCACGUGCGCGCGAAAGAGAGAAGUGAACCAGAGAAACACACGUUGUGGUAUAUUACCUGGUA | 0.135
63 | GUCGUCUUUCACGUGCGCGUGAAAGAGAGAAGUGAACCAGAUAAACACACGUUGUGGUAUAUUACCUGGUA | 0.121
64 | GUCGUCUUUCACGUGCGCGUGAAAGAGAGAAGUGAACCAGAAAAACACACGUUGUGGUAUAUUACCUGGUA | 0.194
65 | GUCGUCUUUCACGUGCGCGUGAAAGAGAGAAGUGAACUAGAGAAACACACGUUGUGGUAUAUUACCUGGUA | 0.129
66 | GUCGUCUUUCACGUGCGCGUGAAAAAGAGAAGUGAACCAGAGAAACACACGUUGUGGUAUAUUACCUGGUA | 0.156
67 | GUCUUCUUUCACGUGCGCGUGAAAGAGAGAAGUGAACUAGAGAAACACACGUUGUGGUAUAUUACCUGGUA | 0.234
68 | GUCGUCUUUCACGUGCGCGUGAAAGAAAGAAGUGAACCAGAGAAACACACGUUGUGGUAUAUUACCUGGUA | 0.325
69 | GUCGUCUUUCACGUACGCGUGAAAGAGAGAAGUGAACCAGAGAAACACACGUUGUGGUAUAUUACCUGGUA | 0.216
70 | GUCGUCUUUCACGUCCGCGUGAAAGAGAGAAGUGAACCAGAGAAACACACGUUGUGGUAUAUUACCUGGUA | 0.212
71 | GUCGUCUUUCACGUGCCCGUGAAAGAGAGAAGUGAACCAGAGAAACACACGUUGUGGUAUAUUACCUGGUA | 0.121
72 | GUCGUCUUUCACGUGCUCGUGAAAGAGAGAAGUGAACCAGAGAAACACACGUUGUGGUAUAUUACCUGGUA | 0.336
73 | GUCGUCUUUCAAGUGCGCGUGAAAGAGAGAAGUGAACCAGAGAAACACACGUUGUGGUAUAUUACCUGGUA | 0.071
74 | GUCUUCUUUCACGUGCGCGUGAAAGAGCGAAGUGAACCAGAGAAACACACGUUGUGGUAUAUUACCUGGUA | 0.273
75 | GUCUUCUUUCACGUGCGCGUGAAAGAGAGAAGUGAACCAGAGAAACACACGUUGUGGUAUAUUAGCUGGUA | 0.0877
76 | GUCUUCUUUCACGUGCGCGUGAAAGAGAGAAGUGAACCAGAGAAACACACGUUGUGGUAUAUUAACUGGUA | 0.374
